Here are results for one molecule from article doi:10.1101/2020.04.25.060004.

The series has as its target insulin (human, UniProt P01308;P01308 25-54;90-110). In words: bead-based flow cytometry.

Sequence of insulin (P01308 25-54, chain 1 of 2): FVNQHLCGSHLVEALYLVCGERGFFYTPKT
Sequence of insulin (P01308 90-110, chain 2 of 2): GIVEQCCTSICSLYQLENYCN

B1: IGA3 bt (ssDNA)
DNA: GGTGGTGGGGGGGGTTGGTAGGGTGTCTTC
The molecule B1 came in with a Kd of 12.7 ± 1.1 µM.
